From PMC11446282 (2024)

B1: CDCA4 (found with purified B55 variants) [human] / B55α WT (immunopurified, Fig. 2) [not stated] (parent complex)
chain 1: MFARGLKRKCVGHEEDVEGALAGLKTVSSYSLQRQSLLDMSLVKLQLCHMLVEPNLCRSVLIANTVRQIQEEMTQDGTWRTVAPQAAERAPLDRLVSTEILCRAAWGQEGAHPAPGLGDGHTQGPVSDLCPVTSAQAPRHLQSSAWEMDGPRENRGSFHKSLDQIFETLETKNPSCMEELFSDVDSPYYDLDTVLTGMMGGARPGPCEGLEGLAPATPGPSSSCKSDLGELDHVVEILVET
chain 2: MAGAGGGNDIQWCFSQVKGAVDDDVAEADIISTVEFNHSGELLATGDKGGRVVIFQQEQENKIQSHSRGEYNVYSTFQSHEPEFDYLKSLEIEEKINKIRWLPQKNAAQFLLSTNDKTIKLWKISERDKRPEGYNLKEEDGRYRDPTTVTTLRVPVFRPMDLMVEASPRRIFANAHTYHINSISINSDYETYLSADDLRINLWHLEITDRSFNIVDIKPANMEELTEVITAAEFHPNSCNTFVYSSSKGTIRLCDMRASALCDRHSKLFEEPEDPSNRSFFSEIISSISDVKFSHSGRYMMTRDYLSVKIWDLNMENRPVETYQVHEYLRSKLCSLYENDCIFDKFECCWNGSDSVVMTGSYNNFFRMFDRNTKRDITLEASRENNKPRTVLKPRKVCASGKRKKDEISVDSLDFNKKILHTAWHPKENIIAVATTNNLYIFQDKVN
B2: FAM122A [human (endogenous in HeLa)] / B55α WT (immunopurified, Fig. 2) [not stated] (parent complex)
chain 1: MAQEKMELDLELPPGTGGSPAEGGGSGGGGGLRRSNSAPLIHGLSDTSPVFQAEAPSARRNSTTFPSRHGLLLPASPVRMHSSRLHQIKQEEGMDLINRETVHEREVQTAMQISHSWEESFSLSDNDVEKSASPKRIDFIPVSPAPSPTRGIGKQCFSPSLQSFVSSNGLPPSPIPSPTTRFTTRRSQSPINCIRPSVLGPLKRKCEMETEYQPKRFFQGITNMLSSDVAQLSDPGVCVSSDTLDGNSSSAGSSCNSPAKVSTTTDSPVSPAQAASPFIPLDELSSK
chain 2: B1 chain 2
B3: IER2 (found with purified B55 variants) [human] / B55α WT (immunopurified, Fig. 2) [not stated] (parent complex)
chain 1: MEVQKEAQRIMTLSVWKMYHSRMQRGGLRLHRSLQLSLVMRSARELYLSAKVEALEPEVSLPAALPSDPRLHPPREAESTAETATPDGEHPFPEPMDTQEAPTAEETSACCAPRPAKVSRKRRSSSLSDGGDAGLVPSKKARLEEKEEEEGASSEVADRLQPPPAQAEGAFPNLARVLQRRFSGLLNCSPAAPPTAPPACEAKPACRPADSMLNVLVRAVVAF
chain 2: B1 chain 2

Variants of: B1
Test: immunopurification of YFP-B55α variants (IP: YFP), Western blot quantification; read off a plot

Row | percent of parent [%] | Variant
1 | ~93 | chain 2 H179A
2 | ~28 | chain 2 F343A
3 | ~28 | chain 2 D340A
4 | ~58 | chain 2 T230A
5 | ~80 | chain 2 D197A
6 | ~110 | chain 2 F280A
7 | ~90 | chain 2 Y178A
8 | ~160 | chain 2 I284A
9 | ~78 | chain 2 V228A
10 | ~40 | chain 2 L198A
11 | ~130 | chain 2 S287A
12 | ~75 | chain 2 L225A
13 | ~50 | chain 2 Y337A

Variants of: B2
Test: as above

Row | percent of parent [%] | Variant
14 | ~97 | chain 2 I284A
15 | ~0 | chain 2 L198A
16 | ~70 | chain 2 H179A
17 | ~0 | chain 2 D197A
18 | ~90 | chain 2 F343A
19 | ~130 | chain 2 L225A
20 | ~140 | chain 2 F280A
21 | ~63 | chain 2 S287A
22 | ~130 | chain 2 Y337A
23 | ~100 | chain 2 V228A
24 | ~5 | chain 2 Y178A
25 | ~93 | chain 2 T230A
26 | ~77 | chain 2 D340A

Variants of: B3
Test: as above

Row | percent of parent [%] | Variant
27 | ~55 | chain 2 Y178A
28 | ~7 | chain 2 D197A
29 | ~2 | chain 2 Y337A
30 | ~25 | chain 2 L225A
31 | ~83 | chain 2 F280A
32 | ~30 | chain 2 F343A
33 | ~67 | chain 2 S287A
34 | ~70 | chain 2 V228A
35 | ~50 | chain 2 T230A
36 | ~3 | chain 2 L198A
37 | ~140 | chain 2 H179A
38 | ~2 | chain 2 D340A
39 | ~65 | chain 2 I284A
